Experimental data from the supplement of paper PMC10724198.
± gives the standard deviation of the averaged measurements.

system: Saccharomyces cerevisiae; assay: protein stability index of tFT-peptide fusion (C-terminal peptide) (PSI (0-1 scale)); higher = more stable (slower turnover); conditions: genetic background: wild type; temperature: 30 C
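Further: PSI is a weighted mean of sequencing reads over stability bins, variants kept only with over 10 reads, mCherry proximal and sfGFP distal, peptide attached via GGGS linker.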

Row | Sequence | protein stability index
1 | SLFFFNFPLCAL | 0.559 ± 0.019
2 | PHPSAAPPPNPP | 0.759 ± 0.062
3 | DMTCSMEQHEDN | 0.663 ± 0.019
4 | SCMSVRKSSPRS | 0.691 ± 0.044
5 | LGGGGLRSRGAG | 0.785 ± 0.21
6 | SASSLPVVAARA | 0.544 ± 0.021
7 | RKKRNKDARQQN | 0.679 ± 0.057
8 | TDWCSYWSGWVV | 0.722 ± 0.019
9 | FSSRLVFFFAAP | 0.667 ± 0.036
10 | LGLCSFGCERCH | 0.704 ± 0.015
11 | FFAFLLRSPSTS | 0.711 ± 0.064
12 | LVGGRGSRSVEA | 0.739 ± 0.12
13 | RLTKKKKEIKRR | 0.717 ± 0.014
14 | SASAILPWAIKL | 0.639 ± 0.075
15 | PPRAHQSCPCRR | 0.719 ± 0.055
16 | SCLYPGLCLSYF | 0.674 ± 0.0069
17 | GASPTNSPLIYT | 0.679 ± 0.0077
18 | CGRGVWAVVGVP | 0.715 ± 0.028
19 | AVSLTLCISSIS | 0.5869 ± 0.0052
20 | GRWRVEYWGFGG | 0.722 ± 0.025
21 | TPASAGLACILL | 0.672 ± 0.013
22 | YASKNPSVVIFG | 0.68 ± 0.018
23 | CGLASHLCSGRG | 0.66 ± 0.081
24 | SRGGGRSEGGEG | 0.695 ± 0.033
25 | ASCRRGGAGCLR | 0.735 ± 0.043
26 | AFMPGLLGDTYE | 0.662 ± 0.022

Row | Sequence | protein stability index
27 | GVGSGEASDGCT | 0.626 ± 0.12
28 | LPLPPASRSAPP | 0.589 ± 0.028
29 | LGIEFGVADVGL | 0.786 ± 0.054
30 | PTLPPPPRPPAP | 0.657 ± 0.016
31 | TPTRRIIPHTHP | 0.685 ± 0.086
32 | ARRYVPPRWGSL | 0.679 ± 0.065
33 | PLSPPLPLPLPL | 0.75 ± 0.037
34 | TSIFRIICLTDR | 0.642 ± 0.022
35 | FDLTFPPPPLPF | 0.719 ± 0.052
36 | GGGRSASGGWGC | 0.698 ± 0.024
37 | PPPPFWPLSPAL | 0.713 ± 0.039
38 | HARFRPRKAVGD | 0.67 ± 0.042
39 | KEILATRQKSST | 0.738 ± 0.04
40 | IASLVSVCFLRD | 0.683 ± 0.029
41 | ASLTPFFLCSIF | 0.649 ± 0.0073
42 | AAPGMIFRDPAQ | 0.739 ± 0.18
43 | PCPLPVPCCLRP | 0.636 ± 0.016
44 | ICSDGIYTKGLC | 0.66 ± 0.024
45 | CGLRGAGVLCWG | 0.483 ± 0.051
46 | VPPPPPCTIPFP | 0.678 ± 0.07
47 | DNAFATAYWIVV | 0.647 ± 0.054
48 | ARLHMSLFRPPA | 0.646 ± 0.011
49 | TCPLSFFLSFLF | 0.565 ± 0.037
50 | VGGGRGGVVRSG | 0.654 ± 0.1
51 | ARSDSPRATQAN | 0.697 ± 0.06
52 | RSRPPPPLLPSV | 0.8206 ± 0.0072

Row | Sequence | protein stability index
53 | LGRPRRGGGVSG | 0.6998 ± 0.0012
54 | VYRIAEENRRWV | 0.738 ± 0.12
55 | GSLHPAPDLRTR | 0.709 ± 0.036
56 | RLVSPVLPLSRL | 0.728 ± 0.031
57 | KVAILAIPKCWT | 0.644 ± 0.022
58 | SLVPFSPPRSPP | 0.689 ± 0.083
59 | ATNCERLHNPHL | 0.727 ± 0.0034
60 | WLGGGGGMQGVR | 0.669 ± 0.057
61 | PPPPLLPRTPPH | 0.54 ± 0.044
62 | APSPPPDPATPR | 0.672 ± 0.026
63 | PPPAPPPPPSSR | 0.667 ± 0.007
64 | EGVCEIEMRGSR | 0.788 ± 0.021
65 | PTVFMNIQKQNI | 0.678 ± 0.042
66 | QGSSLLPLYFPD | 0.622 ± 0.013
67 | AKFERRTIGCSA | 0.605 ± 0.0042
68 | RLFSPLRPLSPP | 0.668 ± 0.032
69 | VRSLLGLPLPGL | 0.788 ± 0.041
70 | FAGNRDQEEERK | 0.706 ± 0.022
71 | VVLSASAALFTF | 0.578 ± 0.029
72 | PAPLRSPLVLPS | 0.721 ± 0.039
73 | LRIGVEAGRAHR | 0.648 ± 0.033
74 | SLLHSIPSSPPF | 0.729 ± 0.041
75 | ALWQADTRSVNN | 0.64 ± 0.097
76 | IQYGSSVRREGR | 0.72 ± 0.22
77 | LLPPTLHPPHLP | 0.751 ± 0.0096
78 | PTSPLVFFFVPL | 0.624 ± 0.037

Row | Sequence | protein stability index
79 | LKKEFSGKEIQD | 0.743 ± 0.049
80 | VSDLGRFVDRRV | 0.636 ± 0.029
81 | HDHEARHSDSLN | 0.658 ± 0.026
82 | INGTEYVVGRKA | 0.686 ± 0.0097
83 | LLFISPPPRCLL | 0.75 ± 0.036
84 | RIGRHLATSRRV | 0.679 ± 0.0089
85 | KKMKEKKKRNHA | 0.712 ± 0.035
86 | GSRGGPVGEAAG | 0.665 ± 0.012
87 | KKKDRENIKNKI | 0.7151 ± 0.0068
88 | QRKKKDRTMKKR | 0.631 ± 0.026
89 | PPPHLPPPPPTQ | 0.658 ± 0.059
90 | QERKKKRENKKE | 0.63688 ± 5.9e-05
91 | ELSRLLPASFSL | 0.696 ± 0.032
92 | KGTKIGRPVRVI | 0.689 ± 0.016
93 | SMYHSCTFRTTV | 0.586 ± 0.021
94 | LSSPPSRPFAPS | 0.721 ± 0.089
95 | LLRPPSAPSTLL | 0.706 ± 0.084
96 | MAINAGYYKWRH | 0.767 ± 0.053
97 | TFSGWYIQGQIV | 0.702 ± 0.16
98 | PWGSGSDRAGRG | 0.746 ± 0.062
99 | RWPSVGFTAHNV | 0.571
100 | AQHTGFMRELRR | 0.7278 ± 0.0016
101 | PDLPHYHPPPPL | 0.727 ± 0.011
102 | LALDPVNLVTSL | 0.682 ± 0.051
103 | RLVDCDLTDKWH | 0.696 ± 0.018
104 | VSGFFFWRSSFV | 0.678 ± 0.028

Row | Sequence | protein stability index
105 | RSCGCNGPGRSP | 0.749 ± 0.08
106 | VHCGTEPRGPRH | 0.709 ± 0.027
107 | GGGGGGGGVVVR | 0.686 ± 0.016
108 | NEGYLIQGVSMG | 0.706 ± 0.0084
109 | SNIGFLLCSLFL | 0.59078 ± 4.5e-05
110 | ITQTRGPRPLAH | 0.7471 ± 0.0043
111 | PVSPPLPTPPPP | 0.616 ± 0.056
112 | GVCLGCWCWWVG | 0.604 ± 0.044
113 | PPPPPPPSLLLP | 0.828 ± 0.041
114 | VSRGHTEWVGMV | 0.702 ± 0.11
115 | RPGPGHYRSIIL | 0.669 ± 0.11
116 | RNYIVLYYDEGD | 0.673 ± 0.074
117 | PPHPTPRTLPSP | 0.691 ± 0.0027
118 | SPYVGVALGGVW | 0.704 ± 0.012
119 | RFLESNGRPFHK | 0.673 ± 0.0088
120 | GAGASEGEPMED | 0.7 ± 0.046
121 | EAVRASSPAGLP | 0.7017 ± 0.0023
122 | ETGMSHHINRIW | 0.752 ± 0.054
123 | TPRTNATAMCTP | 0.72 ± 0.038
124 | PSSPHTAIRHPL | 0.671 ± 0.02
125 | DEPGTEGAKPWR | 0.727 ± 0.074
126 | PLSPPPYPPRPL | 0.721 ± 0.024
127 | PLSPSPPPAFPA | 0.794 ± 0.039
128 | LFLGLLLMNDWL | 0.774 ± 0.096
129 | GGVGGGGREWRR | 0.683 ± 0.033
130 | PPSPAFSSSLPP | 0.635 ± 0.025

Row | Sequence | protein stability index
131 | VVEYCEGKAVYF | 0.695 ± 0.025
132 | YVAGECVFVCWE | 0.657 ± 0.04
133 | VGWGECPKVECV | 0.599 ± 0.1
134 | AWGGSWWSLGGM | 0.6715 ± 0.0056
135 | SPPLCAPPHPPA | 0.679 ± 0.04
136 | FFFFPLLSVPDR | 0.6101 ± 0.0026
137 | RVVDEPRDFQVR | 0.6888 ± 0.0043
138 | LTSDGGLSGCSL | 0.67 ± 0.029
139 | CTQCCSGARLFM | 0.672 ± 0.081
140 | GLLYHIRVRSRG | 0.66 ± 0.006
141 | PRGHLDEFCVVL | 0.705 ± 0.019
142 | ERSWQEKGVVRG | 0.699 ± 0.06
143 | IKKKKKKKKKRQ | 0.668 ± 0.027
144 | PAPLPFPPPSLP | 0.701 ± 0.032
145 | YCGLQSWLGVGG | 0.677 ± 0.0076
146 | VGSCGAPRLPWP | 0.732 ± 0.038
147 | GTDLKGFPFLTF | 0.688 ± 0.014
148 | RTPSHPLPHPHS | 0.677 ± 0.12
149 | GRRRARPISRGT | 0.681 ± 0.047
150 | PSEFGAGYVMGG | 0.71 ± 0.017
151 | LRDWCMLGELAR | 0.742 ± 0.014
152 | PPSPPPPYPAPP | 0.679 ± 0.015
153 | LPSPPPLISLIP | 0.644 ± 0.12
154 | KKEEEGNREEKL | 0.689 ± 0.038
155 | YCPVFSLPPFFR | 0.664 ± 0.086
156 | VREMGSPGLYRP | 0.713 ± 0.01

Row | Sequence | protein stability index
157 | LLSHLSPCTRIG | 0.606 ± 0.051
158 | GGGWGERGRGGS | 0.729 ± 0.037
159 | GGVRAAGTGCGG | 0.642 ± 0.031
160 | GGVCRARVAETV | 0.674 ± 0.0074
161 | GVFWGYGLRDGV | 0.731 ± 0.073
162 | GVGYRLGACPDR | 0.695 ± 0.053
163 | ISEIRHSGFTRL | 0.741 ± 0.084
164 | HGLFGRACRASH | 0.66 ± 0.043
165 | PLRSLPRPLSST | 0.65913 ± 0.00011
166 | AAIVVRLCSLLR | 0.593 ± 0.0091
167 | VEGFVPEDGKEE | 0.684 ± 0.024
168 | LGCVLGLLVFGG | 0.601 ± 0.041
169 | MVISTRARCMFF | 0.6727 ± 0.0059
170 | LGFSDIMSSLVV | 0.801 ± 0.16
171 | QSGTRRRKRCSD | 0.693 ± 0.042
172 | RLSGHLRLGRLG | 0.672 ± 0.086
173 | FTYFLPPPALCS | 0.521 ± 0.02
174 | PLFAPLCLNSNR | 0.666 ± 0.016
175 | VAVMPKPLGVVR | 0.552 ± 0.046
176 | VTDTFKFYCERL | 0.7274 ± 0.0051
177 | GSRALDSPSHCS | 0.74 ± 0.023
178 | GGGVGRGGVEYG | 0.609 ± 0.01
179 | LGTILGWFSICT | 0.59 ± 0.007
180 | GGRRRPVPQGPR | 0.649 ± 0.091
181 | KRRRWFILSGPL | 0.685 ± 0.008
182 | SPRPLFPPHRPT | 0.651 ± 0.044

Row | Sequence | protein stability index
183 | KKKKRKIPKKKK | 0.635 ± 0.11
184 | PWGGLGTGWGRR | 0.75 ± 0.035
185 | LGRFRLSRREGG | 0.6706 ± 0.0043
186 | WVCRGSSLKSSI | 0.677 ± 0.058
187 | GRSRGEGVRRNH | 0.583 ± 0.042
188 | PPGSPPSLPPLP | 0.711 ± 0.057
189 | AMLDSPRHLPSA | 0.679 ± 0.041
190 | EVMGGANDCGVV | 0.689 ± 0.012
191 | DGGVGGGAPRVR | 0.78 ± 0.14
192 | GDERGAGRVGGS | 0.626 ± 0.0064
193 | VLLLLLSLLFGV | 0.5135 ± 0.0023
194 | DRQRVGYRGPPH | 0.639 ± 0.096
195 | PAYACLCGFGIA | 0.62754 ± 0.00056
196 | SWLKRNLFPVAI | 0.596 ± 0.018
197 | CTRHNGTCRVKA | 0.658 ± 0.017
198 | PPSPPPPSRPIH | 0.776 ± 0.021
199 | GDWQGRADGAVI | 0.671 ± 0.071
200 | SCFVAWAFCGWY | 0.554 ± 0.0084
201 | VRQSCGSRGFFF | 0.729 ± 0.023
202 | GVVGTVEGGATG | 0.658 ± 0.037
